From publication PMC3138748, “A Small Peptide Modeled after the NRAGE Repeat Domain Inhibits XIAP-TAB1-TAK1 Signaling for NF-κB Activation and Apoptosis in P19 Cells” (PLoS ONE, 2011)

T1: CFP-NRAGE (full-length NRAGE) (UniProt Q9ES73 1-775)
T1 construct: NRAGE (MAGE-D1), full length; the cloning of this construct is not described; also called C-NR; source: 293T, co-transfected, in fixed cells
T1 sequence (looked up): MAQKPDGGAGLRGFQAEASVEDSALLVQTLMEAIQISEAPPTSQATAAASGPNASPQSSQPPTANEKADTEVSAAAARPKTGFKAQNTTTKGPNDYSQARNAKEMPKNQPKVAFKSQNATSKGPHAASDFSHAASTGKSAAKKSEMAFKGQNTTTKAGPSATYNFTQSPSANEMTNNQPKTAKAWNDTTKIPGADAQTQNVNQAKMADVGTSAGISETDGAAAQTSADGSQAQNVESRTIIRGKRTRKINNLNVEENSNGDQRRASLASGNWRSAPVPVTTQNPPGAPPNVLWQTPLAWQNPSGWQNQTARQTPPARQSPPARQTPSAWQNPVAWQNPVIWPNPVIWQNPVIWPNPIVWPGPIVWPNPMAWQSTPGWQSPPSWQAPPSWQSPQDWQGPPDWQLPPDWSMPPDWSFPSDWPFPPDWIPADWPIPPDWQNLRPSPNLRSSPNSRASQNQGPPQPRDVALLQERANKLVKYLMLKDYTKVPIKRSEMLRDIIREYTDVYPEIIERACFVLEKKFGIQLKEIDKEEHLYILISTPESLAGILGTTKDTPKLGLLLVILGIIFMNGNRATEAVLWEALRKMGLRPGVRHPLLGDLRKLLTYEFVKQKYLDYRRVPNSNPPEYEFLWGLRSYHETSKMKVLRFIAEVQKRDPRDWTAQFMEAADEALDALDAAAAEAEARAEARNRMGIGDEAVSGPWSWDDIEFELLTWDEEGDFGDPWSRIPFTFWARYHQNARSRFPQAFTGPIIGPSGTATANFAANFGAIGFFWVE

T2: YFP-NRAGE (full-length NRAGE) (UniProt Q9ES73 1-775)
T2 construct: NRAGE (MAGE-D1), full length; the cloning of this construct is not described; also called Y-NR; source: 293T, co-transfected, in fixed cells
T2 sequence (looked up): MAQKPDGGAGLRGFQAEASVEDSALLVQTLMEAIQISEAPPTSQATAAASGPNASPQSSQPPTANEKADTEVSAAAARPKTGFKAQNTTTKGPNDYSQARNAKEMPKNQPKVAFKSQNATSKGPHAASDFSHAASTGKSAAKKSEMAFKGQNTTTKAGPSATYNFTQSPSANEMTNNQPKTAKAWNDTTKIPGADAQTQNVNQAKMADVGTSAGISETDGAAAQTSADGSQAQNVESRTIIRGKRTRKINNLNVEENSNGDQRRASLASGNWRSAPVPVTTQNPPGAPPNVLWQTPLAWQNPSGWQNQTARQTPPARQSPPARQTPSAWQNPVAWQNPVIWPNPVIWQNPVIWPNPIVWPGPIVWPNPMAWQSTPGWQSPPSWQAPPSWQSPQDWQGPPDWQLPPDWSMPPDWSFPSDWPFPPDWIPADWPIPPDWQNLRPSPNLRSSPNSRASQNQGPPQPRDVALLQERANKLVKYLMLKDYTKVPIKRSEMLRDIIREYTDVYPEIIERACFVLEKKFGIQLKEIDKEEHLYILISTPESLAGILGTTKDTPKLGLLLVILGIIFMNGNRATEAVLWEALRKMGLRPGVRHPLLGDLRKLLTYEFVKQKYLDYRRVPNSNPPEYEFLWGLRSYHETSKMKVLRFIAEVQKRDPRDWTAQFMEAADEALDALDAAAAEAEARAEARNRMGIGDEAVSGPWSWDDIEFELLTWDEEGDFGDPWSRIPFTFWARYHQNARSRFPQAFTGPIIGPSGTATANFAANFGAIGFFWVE


Tests used:
Assay in all cases: FRET or BRET; donor dequenching ECFP:EYFP FRET, confocal; co-transfected 293T cells, fixed with 4% paraformaldehyde 48 h after transfection; no BMP ligand
Conditions in all cases: partners not purified
ECFP-XIAP = biological target: T3, ECFP-XIAP (UniProt Q60989 1-496)
T3 construct: also called C-X; source: 293T, co-transfected, in fixed cells; not shown: ECFP, N-terminal, kept
T3 sequence (Q60989 whole entry): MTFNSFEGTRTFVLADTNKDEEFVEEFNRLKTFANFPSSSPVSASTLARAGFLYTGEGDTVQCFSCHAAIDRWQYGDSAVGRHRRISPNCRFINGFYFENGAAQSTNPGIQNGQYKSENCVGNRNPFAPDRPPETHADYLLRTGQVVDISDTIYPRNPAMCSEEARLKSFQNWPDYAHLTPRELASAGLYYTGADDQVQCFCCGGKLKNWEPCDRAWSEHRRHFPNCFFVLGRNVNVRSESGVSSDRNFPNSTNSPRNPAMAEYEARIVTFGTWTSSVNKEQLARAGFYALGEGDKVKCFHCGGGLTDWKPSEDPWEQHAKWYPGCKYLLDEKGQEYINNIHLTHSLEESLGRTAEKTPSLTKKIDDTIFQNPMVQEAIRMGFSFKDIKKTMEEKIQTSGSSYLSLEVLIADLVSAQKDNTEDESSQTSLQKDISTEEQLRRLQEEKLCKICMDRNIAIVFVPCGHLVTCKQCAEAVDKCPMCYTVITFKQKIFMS

[1] = biological target: T1, CFP-NRAGE (full-length NRAGE)
[2] = biological target: T2, YFP-NRAGE (full-length NRAGE)
EYFP-XIAP = biological target: T4, EYFP-XIAP (UniProt Q60989 1-496)
T4 construct: also called Y-X; source: 293T, co-transfected, in fixed cells; not shown: EYFP, N-terminal, kept
T4 sequence (Q60989 whole entry): as above

Row | Binder | average peak energy transfer efficiency (FRET) (ECFP-XIAP) [%] | average peak energy transfer efficiency (FRET) [1] [%] | average peak energy transfer efficiency (FRET) [2] [%] | average peak energy transfer efficiency (FRET) (EYFP-XIAP) [%]
1 | PPAWQTPPAWQTPPAWQTPPAWQT (four repeats of the final consensus hexapeptide PPAWQT of the NRAGE repeat domain; also called pep-Y; NRAGE peptide DNA-YFP; source: 293T, co-transfected, in fixed cells; not shown: EYFP, C-terminal, kept) [NRAGE peptide-YFP (NRAGE peptide DNA in pEYFP-N1)] | 0.34 | 0.36 | – | –
2 | PPAWQTPPAWQTPPAWQTPPAWQT (four repeats of the final consensus hexapeptide PPAWQT of the NRAGE repeat domain; also called pep-C; NRAGE peptide DNA-CFP; source: 293T, co-transfected, in fixed cells; not shown: ECFP, C-terminal, kept) [NRAGE peptide-CFP (NRAGE peptide DNA in pECFP-N1)] | – | – | 0.41 | 0.46
